Measured values from patent publication US20260232824A1, “ANTI-CD180 BINDING MOLECULES AND USES THEREOF” (Champions Oncology, Inc., priority 2023, published 2026).

How the values were obtained:
CD19 = target: T1, CD19 (Homo sapiens, UniProt P15391); assay: CD19 expression versus in vitro activity of comparative ADC; format: cell-based; settings: FIG. 27A
T1 construct: endogenous in cells
T1 sequence (P15391 20-556): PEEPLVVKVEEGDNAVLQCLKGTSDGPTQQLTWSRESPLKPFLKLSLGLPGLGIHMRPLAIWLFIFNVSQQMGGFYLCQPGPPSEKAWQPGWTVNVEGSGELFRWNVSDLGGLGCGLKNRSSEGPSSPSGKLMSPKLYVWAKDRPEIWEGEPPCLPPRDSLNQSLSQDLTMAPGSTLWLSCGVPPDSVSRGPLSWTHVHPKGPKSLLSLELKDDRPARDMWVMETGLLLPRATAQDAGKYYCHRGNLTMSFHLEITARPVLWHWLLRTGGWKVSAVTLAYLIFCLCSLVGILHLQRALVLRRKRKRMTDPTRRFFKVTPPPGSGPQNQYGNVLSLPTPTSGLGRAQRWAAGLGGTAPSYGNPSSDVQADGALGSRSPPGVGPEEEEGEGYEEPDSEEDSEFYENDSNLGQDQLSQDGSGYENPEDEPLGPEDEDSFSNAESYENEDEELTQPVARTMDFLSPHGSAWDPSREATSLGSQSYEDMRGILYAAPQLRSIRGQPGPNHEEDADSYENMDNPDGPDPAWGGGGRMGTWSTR

[1] = test system: panel of cancer cell lines; settings: cited from earlier work

| Compound | correlation of CD19 expression with in vitro activity (CD19) | activity in a panel of cancer cell lines [1] |
| --- | --- | --- |
| Lonca Tesirine: loncastuximab tesirine-lpyl | CD19 expression correlated with in vitro activity | – |
| COc1cc2c(cc1OCCCCCOc1cc3c(cc1OC)C(=O)N1C=C(C)C[C@H]1C=N3)N=C[C@@H]1CC(C)=CN1C2=O [SG3199] | – | picomolar activity |
